Legend:
[1] = molecular target: single chain H2B_(36-130) and H2A.Z_(22-118) chimera; test: ITC
[2] = molecular target: single chain H2B_(36-130) and H2A.Z_(22-118) chimera; test: AUC
Swr1_(504-650) = molecular target: T1, Swr1_(504-650) (S. cerevisiae, UniProt Q05471 505-651); test: ITC
T1 sequence (looked up): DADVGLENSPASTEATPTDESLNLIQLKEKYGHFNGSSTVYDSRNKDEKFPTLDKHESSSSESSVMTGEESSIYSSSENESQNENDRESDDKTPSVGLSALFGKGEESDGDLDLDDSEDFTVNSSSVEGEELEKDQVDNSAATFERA

## Swr1_(504-650) (from UniProt Q05471 505-651) (domain or fragment)
[1]
  Kd: 7 nM

## Swr1_(589-650) (from UniProt Q05471 590-651) (domain or fragment)
[2]
  stoichiometry N: 1

B1: scH2B-H2A (other)
chain: MRKETYSSYIYKVLKQTHPDTGISQKSMSILNSFVNDIFERIATEASKLAAYNKKSTISAREIQTAVRLILPGELAKHAVSEGTRAVTKYSSSTQAQSRSAKAGLTFPVGRVHRLLRRGNYAQRIGSGAPVYLTAVLEYLAAEILELAGNAARDNKKTRIIPRHLQLAIRNDDELNKLLGNVTIAQGGVLPNI
Swr1_(504-650)
  Kd: ~151 nM

Reference: publication PMC3940207 (Molecular cell, 2014)
